Positions count from the first letter of the chain named.

Here are results for 6 molecules from publication PMC6447562, “Structures of the wild-type MexAB–OprM tripartite pump reveal its complex formation and drug efflux mechanism” (Nature Communications, 2019).

First the molecules themselves.
B1: OprM, full length (natural protein)
chain: CSLIPDYQRPEAPVAAAYPQGQAYGQNTGAAAVPAADIGWREFFRDPQLQQLIGVALENNRDLRVAALNVEAFRAQYRIQRADLFPRIGVDGSGTRQRLPGDLSTTGSPAISSQYGVTLGTTAWELDLFGRLRSLRDQALEQYLATEQAQRSAQTTLVASVATAYLTLKADQAQLQLTKDTLGTYQKSFDLTQRSYDVGVASALDLRQAQTAVEGARATLAQYTRLVAQDQNALVLLLGSGIPANLPQGLGLDQTLLTEVPAGLPSDLLQRRPDILEAEHQLMAANASIGAARAAFFPSISLTANAGTMSRQLSGLFDAGSGSWLFQPSINLPIFTAGSLRASLDYAKIQKDINVAQYEKAIQTAFQEVADGLAARGTFTEQLQAQRDLVKASDEYYQLADKRYRTGVDNYLTLLDAQRSLFTAQQQLITDRLNQLTSEVNLYKALGGGWNQQTVTQQQTAKKEDPQA
notes: OprM (outer membrane factor), Pseudomonas aeruginosa, gene encoding full-length OprM; The full-length gene was expressed; also called OMF; outer membrane factor; source: E. coli C43(DE3), outer membranes solubilised with OG, purified (Ni-NTA, Superdex200, CYMAL-7)
B2: MexB, full length (natural protein)
chain: MSKFFIDRPIFAWVIALVIMLAGGLSILSLPVNQYPAIAPPAIAVQVSYPGASAETVQDTVVQVIEQQMNGIDNLRYISSESNSDGSMTITVTFEQGTDPDIAQVQVQNKLQLATPLLPQEVQRQGIRVTKAVKNFLMVVGVVSTDGSMTKEDLSNYIVSNIQDPLSRTKGVGDFQVFGSQYSMRIWLDPAKLNSYQLTPGDVSSAIQAQNVQISSGQLGGLPAVKGQQLNATIIGKTRLQTAEQFENILLKVNPDGSQVRLKDVADVGLGGQDYSINAQFNGSPASGIAIKLATGANALDTAKAIRQTIANLEPFMPQGMKVVYPYDTTPVVSASIHEVVKTLGEAILLVFLVMYLFLQNFRATLIPTIAVPVVLLGTFGVLAAFGFSINTLTMFGMVLAIGLLVDDAIVVVENVERVMAEEGLSPREAARKSMGQIQGALVGIAMVLSAVFLPMAFFGGSTGVIYRQFSITIVSAMALSVIVALILTPALCATMLKPIEKGDHGEHKGGFFGWFNRMFLSTTHGYERGVASILKHRAPYLLIYVVIVAGMIWMFTRIPTAFLPDEDQGVLFAQVQTPPGSSAERTQVVVDSMREYLLEKESSSVSSVFTVTGFNFAGRGQSSGMAFIMLKPWEERPGGENSVFELAKRAQMHFFSFKDAMVFAFAPPSVLELGNATGFDLFLQDQAGVGHEVLLQARNKFLMLAAQNPALQRVRPNGMSDEPQYKLEIDDEKASALGVSLADINSTVSIAWGSSYVNDFIDRGRVKRVYLQGRPDARMNPDDLSKWYVRNDKGEMVPFNAFATGKWEYGSPKLERYNGVPAMEILGEPAPGLSSGDAMAAVEEIVKQLPKGVGYSWTGLSYEERLSGSQAPALYALSLLVVFLCLAALYESWSIPFSVMLVVPLGVIGALLATSMRGLSNDVFFQVGLLTTIGLSAKNAILIVEFAKELHEQGKGIVEAAIEACRMRLRPIVMTSLAFILGVVPLAISTGAGSGSQHAIGTGVIGGMVTATVLAIFWVPLFYVAVSTLFKDEASKQQASVEKGQ
notes: MexB (RND transporter), Pseudomonas aeruginosa, full length; also called RND transporter; source: E. coli C43(DE3), membranes solubilised with DDM, purified (Ni-chelating Sepharose, Superdex200, CYMAL-7)
B3: MexA (a.a. 2-360) (natural protein)
chain: GKSEAPPPAQTPEVGIVTLEAQTVTLNTELPGRTNAFRIAEVRPQVNGIILKRLFKEGSDVKAGQQLYQIDPATYEADYQSAQANLASTQEQAQRYKLLVADQAVSKQQYADANAAYLQSKAAVEQARINLRYTKVLSPISGRIGRSAVTEGALVTNGQANAMATVQQLDPIYVDVTQPSTALLRLRRELASGQLERAGDNAAKVSLKLEDGSQYPLEGRLEFSEVSVDEGTGSVTIRAVFPNPNNELLPGMFVHAQLQEGVKQKAILAPQQGVTRDLKGQATALVVNAQNKVELRVIKADRVIGDKWLVTEGLNAGDKIITEGLQFVQPGVEVKTVPAKNVASAQKADAAPAKTDSKG
notes: MexA (membrane fusion protein), Pseudomonas aeruginosa, a.a; 2-360, lacks the signal peptide and the first cysteine; numbers count on: the mature protein; Six copies (a hexamer) stand in the assembled MexAB-OprM pump; also called MFP; membrane fusion protein; source: E. coli BL21-RILP(DE3), purified (Ni-NTA, TEV cleavage, Superdex200); not shown: His6, N-terminal, cleaved
B4: MexA R96D (natural protein, Pseudomonas aeruginosa, UniProt P52477 25-383, looked up)
chain: B3 chain with R95D
notes: MexA, Pseudomonas aeruginosa, a.a; 2-360 as m1; numbers count on: the mature protein; source: E. coli, expressed and purified as the wild type; not shown: His6, N-terminal, cleaved
B5: MexA L99D (natural protein, Pseudomonas aeruginosa, UniProt P52477 25-383, looked up)
chain: B3 chain with L98D
notes: as for B4
B6: MexA R96A (natural protein, Pseudomonas aeruginosa, UniProt P52477 25-383, looked up)
chain: B3 chain with R95A
notes: as for B4

Series [1] deals with the molecule itself. The series is described as follows: cryo-EM structure; MexA, MexB and OprM reconstituted in vitro, detergent replaced with amphipol A8-35, 50 mM HEPES-K pH 7.5; single-particle analysis; 0° and 60° states; without drug and with 10 mM novobiocin.
The target of series [2] is B1. Described as above. Particulars: both partners purified.
Series [3] deals with B1. The series is described as follows: SEC; complex-formation experiment: MexA, MexB and OprM (wild type, or one of them mutated) mixed at 3:1:1 in buffer C, dialysed against buffer D (20 mM Na-citrate, 300 mM KCl, 0.02% CYMAL-7) at 4 °C, Superdex200 16/60, 0.5 mL/min; the read-out is the formation of the tripartite complex. To be noted: both partners purified.
The target of the series “MexB, full length” is B2. Described as above. To be noted: both partners purified.

Take B1: the “stoichiometry N” value in series [1] is 3.
In the case of B2, the “stoichiometry N” value in series [1] came out at 3.
Turning to B3, the “stoichiometry N” value was 2 MexA per OprM with OprM, full length [2] and 6 in series [1].
For the molecule B4, the binding result with OprM, full length [3] is “binds”.
Turning to B5, the binding result in the series with MexB, full length is listed as “binds”; with OprM, full length [3] it was “binds”.
Regarding B6, the binding result in the series with MexB, full length is on record as “binds”; in the series with OprM, full length [3], “binds”.
